Laboratory results reported in paper PMC3187708 (The Journal of Cell Biology, 2011).

Biological target: T1, 6His-FIP5 (human, UniProt Q9BXF6 1-653)
T1 sequence (looked up): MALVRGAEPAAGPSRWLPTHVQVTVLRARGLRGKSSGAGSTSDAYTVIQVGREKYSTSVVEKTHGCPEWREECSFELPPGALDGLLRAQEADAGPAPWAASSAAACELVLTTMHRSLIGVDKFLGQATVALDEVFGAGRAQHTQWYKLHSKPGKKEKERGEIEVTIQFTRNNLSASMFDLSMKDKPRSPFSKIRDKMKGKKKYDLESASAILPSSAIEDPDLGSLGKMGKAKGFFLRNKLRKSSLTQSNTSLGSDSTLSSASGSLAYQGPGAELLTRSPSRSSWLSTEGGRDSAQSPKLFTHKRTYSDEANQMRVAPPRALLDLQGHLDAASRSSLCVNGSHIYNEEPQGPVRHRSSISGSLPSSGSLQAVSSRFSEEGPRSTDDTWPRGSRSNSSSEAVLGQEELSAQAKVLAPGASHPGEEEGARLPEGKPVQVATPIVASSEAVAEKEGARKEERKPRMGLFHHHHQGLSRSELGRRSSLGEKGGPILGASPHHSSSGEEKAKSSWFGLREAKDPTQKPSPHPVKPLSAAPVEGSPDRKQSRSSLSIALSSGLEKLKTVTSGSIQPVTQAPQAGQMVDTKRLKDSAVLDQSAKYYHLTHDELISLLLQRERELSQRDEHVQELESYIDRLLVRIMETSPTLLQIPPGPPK
Assay: ITC

Kd: 1560 nM
B1: GST-SNX18 (natural protein, human, UniProt Q96RF0 1-628, looked up)
chain: MALRARALYDFRSENPGEISLREHEVLSLCSEQDIEGWLEGVNSRGDRGLFPASYVQVIRAPEPGPAGDGGPGAPARYANVPPGGFEPLPVAPPASFKPPPDAFQALLQPQQAPPPSTFQPPGAGFPYGGGALQPSPQQLYGGYQASQGSDDDWDDEWDDSSTVADEPGALGSGAYPDLDGSSSAGVGAAGRYRLSTRSDLSLGSRGGSVPPQHHPSGPKSSATVSRNLNRFSTFVKSGGEAFVLGEASGFVKDGDKLCVVLGPYGPEWQENPYPFQCTIDDPTKQTKFKGMKSYISYKLVPTHTQVPVHRRYKHFDWLYARLAEKFPVISVPHLPEKQATGRFEEDFISKRRKGLIWWMNHMASHPVLAQCDVFQHFLTCPSSTDEKAWKQGKRKAEKDEMVGANFFLTLSTPPAAALDLQEVESKIDGFKCFTKKMDDSALQLNHTANEFARKQVTGFKKEYQKVGQSFRGLSQAFELDQQAFSVGLNQAIAFTGDAYDAIGELFAEQPRQDLDPVMDLLALYQGHLANFPDIIHVQKGKAWPLEQVIWSVLCRLKGATLTAVPLWVSESYSTGEEASRDVDAWVFSLECKLDCSTGSFLLEYLALGNEYSFSKVQRVPLMTVLSF
